Results published in US20230095004 (Aptitude Medical Systems, Inc., published 2023).

Tests used:
VEGF-165 (VEGF-A) [1] = target: T1, VEGF-165 (VEGF-A) (Homo sapiens); assay: competition; VEGF receptor competition; details: tags: recombinant; chain copies: 2
T1 chain: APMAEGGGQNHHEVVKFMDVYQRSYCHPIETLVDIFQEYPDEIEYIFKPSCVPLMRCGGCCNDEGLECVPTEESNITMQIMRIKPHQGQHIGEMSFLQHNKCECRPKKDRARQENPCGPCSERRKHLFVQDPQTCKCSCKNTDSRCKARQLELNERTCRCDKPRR

Angiopoietin-2 (Ang2) [2] = target: T2, Angiopoietin-2 (Ang2) (Homo sapiens, UniProt O15123 O15123:19-496); assay: competition; Ang2/Tie2 competition (column printed Tier2); details: tags: His tag; R&D Systems 623-AN
T2 sequence (O15123 19-496, one chain of several): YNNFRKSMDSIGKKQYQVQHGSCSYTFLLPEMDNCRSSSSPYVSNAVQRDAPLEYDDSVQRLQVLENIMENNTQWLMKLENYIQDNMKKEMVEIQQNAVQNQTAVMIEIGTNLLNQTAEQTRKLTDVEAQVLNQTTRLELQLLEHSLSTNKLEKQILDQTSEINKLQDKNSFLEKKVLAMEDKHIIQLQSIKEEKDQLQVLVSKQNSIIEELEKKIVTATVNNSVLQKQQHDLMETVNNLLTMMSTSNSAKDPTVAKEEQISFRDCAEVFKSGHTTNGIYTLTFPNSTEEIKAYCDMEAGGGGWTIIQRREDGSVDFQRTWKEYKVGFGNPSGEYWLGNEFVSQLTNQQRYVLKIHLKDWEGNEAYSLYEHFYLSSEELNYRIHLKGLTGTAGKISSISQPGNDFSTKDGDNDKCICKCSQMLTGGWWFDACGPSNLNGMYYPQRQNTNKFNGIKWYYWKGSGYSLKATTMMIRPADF

Angiopoietin-2 (Ang2) [3] = target: T2, Angiopoietin-2 (Ang2); assay: competition; Ang2/Tie2 inhibition; details: tags: His tag; R&D Systems 623-AN
VEGF-165 (VEGF-A) [4] = target: T1, VEGF-165 (VEGF-A); assay: competition; VEGF/VEGFR2 inhibition; details: tags: R&D Systems 293-VE-050; chain copies: 2
VEGF-165 (VEGF-A) [5] = target: T1, VEGF-165 (VEGF-A); assay: flow; PBSMCT, 37 C; details: tags: recombinant; chain copies: 2; label: biotin
VEGF-121 (VEGF-A) [6] = target: T3, VEGF-121 (VEGF-A) (Homo sapiens, UniProt P15692 SEQ:1-121); assay: flow; PBSMCT, 37 C; details: tags: recombinant; chain copies: 2; label: biotin
VEGF-165 (VEGF-A) [7] = target: T1, VEGF-165 (VEGF-A); assay: competition; VEGFR2 competition ELISA, 50 pM VEGF-165, 37 C; details: tags: recombinant, chain copies: 2
VEGF-121 (VEGF-A) [8] = target: T3, VEGF-121 (VEGF-A); assay: flow; bead-bound aptamer; PBSMCT 2.5 mM MgCl2 1 mM CaCl2, 37 C; details: tags: recombinant; chain copies: 2; label: biotin

B1: AMSB107.P40K (ssRNA)
RNA: UGCAUGCAUUUUACCAGUGAGUCGGAUCUCCGCAUAGAUAAGCCAACAAACGUACAUUCUCUGUUAGUAUUUUCUGCG
modifications: 2'-F all nucleotides; 5' 40 kDa PEG (SEQ 203 as printed in the description)
With B1 the IC50 (VEGF-165 (VEGF-A) [1]) was 0.036 nM and the IC50 (Angiopoietin-2 (Ang2) [2]) was 0.045 nM.

B2: AMSB107 (ssRNA)
RNA: B1 RNA
modifications: 2'-F all
B2 showed an IC50 (Angiopoietin-2 (Ang2) [3]) of about 0.1 nM and an IC50 (VEGF-165 (VEGF-A) [4]) of 0.073 nM.

UGCAUGCAUUUUACCAGUGAGUCGGAUCUCCGCAUAUCUGCG (ssRNA, 2'-F all nucleotides) [AMS0433] showed a Kd (VEGF-165 (VEGF-A) [5]) of 0.041 nM, a Kd (VEGF-121 (VEGF-A) [6]) of 0.052 nM and an IC50 (VEGF-165 (VEGF-A) [7]; label: biotin) of 0.037 nM.

B3: AMS0433.m4 (ssRNA)
RNA: UGCAUGCAUUUUACCAGUGAGUCGGAUCUCCGCAUAUCUGCG
modifications: mixed 2'-F and 2'-OMe: fUfGfCfAfUfGfCfAmUmUmUmUmAmCfCfAfGfUfGfAfGfUmCfGfGfAmUfCfUfCmCmGmCmAmUmAmUmCmUmGmCmG
B3 was tested, and the IC50 (VEGF-165 (VEGF-A) [7]) was 0.04 nM.

B4: AMS0433.m6 (ssRNA)
RNA: B3 RNA
modifications: mixed 2'-F and 2'-OMe: mUmGmCmAmUmGmCmAmUmUmUmUmAmCfCfAfGfUfGfAfGfUmCfGfGfAmUfCfUfCfCfGfCfAfUfAfUfCfUfGfCfG
Binder B4 has an IC50 (VEGF-165 (VEGF-A) [7]) of 0.041 nM.

ACCCUUGCUUGCGUAGCAUUUUACCAGUGAGUCGGAUCUC (ssRNA, 2'-F all nucleotides) [AMS0433.0] was tested, and the Kd (VEGF-165 (VEGF-A) [5]) was 11.1 nM and the Kd (VEGF-121 (VEGF-A) [8]) was 15.2 nM.
